Measured values from a protein production outcome set (Wang et al. 2014).

Experiment: label from the status in PepcDB records

MPFPPEVYVLLVAALPVVELRGAIPLGVALGLSPWESFLWALLGNLLVVPLALGLLPWAVGLATRMPLFARAWRALEVRVRLKGEAQVQRLGALGLFLFVAVPLPGTGAWSGAVLAVVLGVRRRYAFPALALGVVAAGLLVLLLTGGTVYGLNYLR
protein production: failed

MAIFMSYVLLGLSLAAPIGPVNAAQLDRGIKNGFFHAWLVGLGAITADVIYMLLVFFGLVHFLQLPFMQTFLWLFGFFVLVYTGIETISSVNHLKEATNMRTSETYRKSFIYGFLMSISNPLTILFWLGIFGSVLAKTASVYGPAQLVFYSSAILIGLLLWDVAMAGIASGARHMLTPARLKIVSILSGLTLIGFGVYFGLQACRVLFG
protein production: failed

MWPVVALTLFVVTFGFVLGGLVVGGKVQARPVSFLLFSGLFLFSSFFGMLVSLFTTGWFPFRLLDVVIVALCFVFIVSCFMRFHPTFGFFQFDGRANMILFAVISFFLGLQLGMLGWRTFFILFLALVFTAGLFAGGVFQVRAVMKFYSRQPSFHFLPLIWLLFATVLKLL
protein production: failed

MTTESAWTRWPSREALGREGLSRPRRMLAWTVRALVLAMLLWGAFSSSHVHGWGAVAAAAGVLLAAGASWAFFRTTLQHRLWPSLALIAVLLGIAIVAQTAGFQVPALVIWCGCAVSALERLPLAAALPVTTAALAAYAAVDNDVWLTTAATIAGLFLAGYVLRLDAEARGSAQRLLAQERAARAAETQSAALAERARIAREIHDVLAHSLSAQLVHLEAARLLIERGADREQILGRVVAARGMAREGLAETRQALSALRGEISPLEDFLSELVAFEDGADVTVSGERRLLTAEASQAVRRVAQEALTNVRKHAPGAKVQVKLEYGERQVTLHVRDSGGKPGDLTGSGAGYGLLGMRERAELLGGSLEAGREEKGFVVTLKVPA
protein production: failed

MSIPSFLKLVEIQTKIASVFPFMLGTLFVVYQYDMFKPINTLIIFGSMLIFDLTTTAINNYMDYRKATDNHDYDYRTTSNVIGQEQIPVRTVIITIFLMFFIATGLGVWLVFRTDLLVLLIGFVCFCIGILYTFGPVPLSRMPLGEIFSGVTMGFGIFFLAVYVNAYDAGIANLLWQGEMVTIQFNLIEIIRIGVVSLPCIFTIANIMLANNLCDLDEDIRNHRYTLPYYIGRKMGVLLFNTLYYASFLAVVVSVAINFLHPIMLLSLITIYPVYRNLVKFNKEQVKSKTFVIGIRNFVLINATLTILMAVSVVLQQLT
protein production: failed

MPYINELRNHKFLIILVDLLCILAAYIAAFYIRYQGFPAKNWESFVSLLPWILLIGLFFISVYELYALDRKNTLWDILVKIFVAVTFMAFLTMAASYFFREFALPRSILFIASVFTIVLLATWKYVFLKLTRRNVVGKVLFIGDDDNTERMISKIKHPMLKGTSIKQVHPNIPMDKINHYMRHADYIILCTSIQKEKKSMIIYHAMECNKLVYVVPTLYELLLQRSSVTPLDDTMLMSVKPFGLTWDQAFIKRAFDVVTSAFTLICTSPLLPISCNFN
protein production: failed

MSLVLMAQATKPEQLQQLQTTYPDWTFKDAAAVTAADYDQIEVMYGNHPLLKTILARPTNQLKFVQVISAGVDYLPLKALQAAGVVVANTSGIHADAISESVLAAMLSVVRGYHAAWLNQRGARQWALPMTTSTLTGQQLLIYGTGQIGQSLAAKASALGMHVIGVNTTGHPADHFHETVAFTATADALATANFIVNALPLTPTTHHLFSTELFQQTKQQPMLINIGRGPAVDTTALMTALDHHQLSMAALDVTEPEPLPTDHPLWQRDDVLITPHISGQIAHFRATVFPIFAANFAQFVKDGTLVRNQVDLNRGYEGHHHHHH
protein production: not failed

MGETAGREHGTVTRSAEYIGSFPVDDSCLDDQIQQLHTQLKSLKNCKSKRTVSLRFSVKGVKVYDEDETTLLMAHAMCRVSLSTARPSDAQFAFASHNPGNSDAQLYCHLFRARHARAAQFLNLLLCRCFQLYFLEKHPEEAQEECSGKKPSRAPSLLNQGFPLSVSALVSFRRAPTQGLLPGAKLFSQQSTEQVSSPEEGPTSSPTIVRKMAIRTKELRSGAYRSFTFTPLKQRHLQDKLSAPQGGMSVHRTLSRLKEFLRKGTSHCKGMHVSSSQFGRNRRSTGSSCVVLGWRV
protein production: failed

MTHTIIHPSSSKSSFESPAMAYRINCQQGQTHLLWVTLRLTAPQTDVLDLHLPVWTPGSYLVREYARHLQDFTAATADGTPLEWWKCTKNQWQVACTPGLELKVRYAIYAHELSVRTSHFDRSHAYFNPAAVCLYVPQYRDQPLTITIEAPPDWRVTTPLEGWGEDGRTFWAPNYDLLVDSPFEVGTHGIYTFEVDGKPHELAVWGKGNFDPKRAIADIQRIIETEASFFGGLPYDRYVFILHLTHKGYGGLEHLNSCSLIFHRFGFQQPEQYCRFLCLVAHEFFHLWNIKRIRPQAFEVFDYDSENYTTSLWFVEGVTSYFDQLIPLWAGLFDAPTYLKLLSDSLNRYFHTPGRFVQSLSAASFDAWIKLYRPDENSINSQMSYYLKGELVALLLDLRIRLNFNHQRSLLDVLRRLWQRYCETGEGYTPDELWQTIETVADENLSTWREQFIEGTVELPLQEWLTKVGLELVPQDALPYTGLQFQQEQGSLQIKAVLRDSPAEQAGLGAGDEIIALNGWRVKAQDWSERLREYTAGETIHLTWFHDQQLQSGDLILGEPQPHYRLQCRADATPSQRAHLEAWLGATATQL
protein production: failed

MTRASLDKQPHEVASMFDDVAERYDLTNDLLSLGQDRVWRREVAKAVDARPAQKILDLAAGTATSSLPFARAGAYVVPCDFSLGMLRVGKKNHPWLPLTAGDATKLPFKDDTFDAVTISFGLRNVQDTDTALSELYRVTKPGGRVVICEFSHPTWAPFRTVYTEYLMRALPPVARAVSSNPDAYVYLAESIRAWPTQPELAERLRKAGWSKVAWRNLTGGVVALHRGFKAV
protein production: failed

MLQNRLNKARSHAEKHDVDAIVFFNMSNVRYLSGFTGSDGAVVLGRDASWFLTDSRYTTQASRQVVGLPTVEYRIKLDGITELVREQGFRRIGFESEHTAFAVYESLRQKLPKTELVPIGEELAQLRLIKDPSECELLSRVARLASEALLSILPLVKPGAVERELALELEFAMRRAGAENASFDFIVASGERGSLPHGRASDKALAAGELVTIDFGARYEGYCSDETVTVAVGVPDERQCQIYGIVKEAHDRAIAAVRPGAELREIDRIARGYIEEQGYGAFFGHGLGHGVGLDVHEKPVVSPRGEGVAAVGMVFTIEPGIYIPGWGGVRIEDTVIVTEDGCRPITMIPKELMIL
protein production: failed

MPQPGLTTPDNDALPWQTTLLLALQHVLVVAATPITSVFLIAKALHFTDTVTASVLSATFLMCGLGAILQSLGVKGVGARLPFIMVPGGAPIAIFVAIALQTNIQTAIGAVILTSLFYFIALPIFRRCLHHFPPFIIGIMLLMVSINLIRLYGGLIIGQPGSADFAHPTSIILSLGTILITLIFALAFSGILRQLAVMFGLLAGTLLGMALGSTDFSGVSHGPLFSFPQLLPFGWPIFDLSASLPLLIYAVISMAEATGQTIATAEIVNSTQNVQQAIPRTIRGDAVMSLLGGIFGTSLIITSGENIGVVRTTNVKSRFVTAAAGGLLILIAIFAPLVRLATCLPGSVVCGTAVIVFSIIGVIGIDMIAREPLHTPGKTYALAMGLAMGMLPILVPGLYQNFPAGVQMVFGNGMAAGTLTAILVNSLFNWSEKRTQARVKS
protein production: failed

MLILAIPGYIYYHQQQEQAANQQLGQILPVYEQGNFQQALDGTGDRAGLLAIADDYGGTDAGNLATFYAANALYQRDEYDRALTYYQRFEKEKDFIGASAYAAQAAIQETRGSFERAGGLYEQAASQYQNKLTAPRYLLNAGQAYEEAGQYEAAIGVYERIQEEYPDSEQASNAERYLARAKVHQGSTSSS
protein production: failed

MSKQPWLGYLASVAITCTAAGLAYLLDHWLLPTSGTVLILQLAVLLIAFLTNFRAALLAVVLALLLFNFLFTEPRYSLHMTDIDEMVTAIVFIAVGVITSHLVTLFRNQKESLRQAQLRSNILLSVSHDLRTPLASVIGNLSTLQAYQERLPEQERAELLQGALDESDRLHRYIENLLQATRLQHGEIRLTHAVQDIRPVISKTLSRFASQERLLVKDNLQHAMVEVQSSLLEQALFNVIDNAMRFSGETAPVTLSLSETDKFIVIDIKDEGPGIETSKRSLVFNVFYSSREKDSGTGGTGLGLSVAKGIIDIHNGHIGIEESPDGCLVRIKLPRANITEEVS
protein production: failed

MERIRWLYGFLACILIAILLAPLQIMAQGEFRTSDQPLVYYIPVEQEVERGLEAFLQRSLDSAVEEGADHIVLEINTPGGRVDAAGNMARALRETDIPITAYVIDQALSAGAYIALNADEIVMAPGSTMGSAAVIDSAGNAADEKAQSYWLAEMRNAAEYNDRDPKYALAMADRSIEIPELDISNEELLTLTASQALEVNYAEAIASNRAELLEHLQIDNAFEQEMEVSFAEKLARFVTNPLIIPILLSIGSLGLVLELYSPGFGVPGIMGISALLLFFFGHLIAGFAGYEAMILFIAGFLLILIEVFMPGFGLFGILGIAGMIGGMLLASFSTAWMLVSLGISAVVTTVVAIITFRYFGSRGPWKKMILTESTSSEKGYITNETRQELVGLIGQSLTPLRPSGSGLFGEERLDVVSEGGYIEQGRKIKVVSTSGSRIVVRETDELEHHHHHH
protein production: failed

MKEVRIVFQPGEISVPVAAGTTIMEAMNRSGLGEDFPCGGRGKCGKCRVKVREGREDFTAIDEDHLTAQELAEGVRLACATKINRDMMVEMQSPKKLQHHILIDSAARAFHIHPHLVKVFAEIAQPSLSEHKSDWQRLQESLAGLGCSVHDLQAPLSVLRRLPDTLRESTNRVTTIVYGSQVLGVEQGDTTGTLLGMAFDIGTTTIVGYLLDLNSGRELEVVSTLNPQAQYGGDVISRITFAGKEEKGLDTLHQAVTGAMNRLIGEAVDKAGVSRTQLYGISVAANTTMHHLFLGITPRSIGMSPYVSAINQGLVVAPGELGLEINKAGRVFVLPNIAGFVGADTTAVLLASDLEKSDHVTLILDIGTNGEIVLGSKNRMVACSAAAGPAFEGAQITSGMRGADGAIDHISFDHGLSYTVIGNGRPIGICGSALLDGVAGFVELGMINKRGKFLEPEKLTHPSALKLKDRLIKYEETWAFQLVEAGQTRHGRPILITQNDIRELQLAKGAIAAGVRILQEAMGIECEDIKEVLLAGAFGNYLNPHSACVIGLIPRELESRIKTIGNAAGNGAKIALLSAQEFSRAKDLAGGVSFVELGSYPGFNTIFAQNTYFKLDLEHHHHHH
protein production: not failed

MDDNTPDLFAEPAAPEGDFLTLGRYAERQYLDYAVSVVKGRALPDVSDGQKPVQRRILYAMNEMGLGDNAKPVKSARVVGDVLGKYHPHGDQSAYDALVRLAQDFSMRYPLIDGQGNFGSRDGDGAAAMRYTEARLTPIAKLLLDEIDEGTVDFMPNYDGSFDEPKLLPARLPFVLLNGASGIAVGLATEIPSHNLREVAAAAVALIRHPALPHAELMQLVPGPDFPGGGQIISSDAEISAAYETGRGSLKVRARWKIEDLARGQWQLVVTELPPNTSCQKVLEEIEELTNPKLKAGKKTLTQEQINTKKTMLDLLDAVRDESGKDAPVRLVFEPKTRTIDQTEFVNSLLAHTSLESNAALNLVMIGEDGRPAQKGLASILGEWVRFRQATVTRRCRHRLGKVNDRIHILEGRMIVFLNIDEVIRIIREADEPKAALISAFGLTERQADDILEIRLRQLARLEKIKIEKELEELRAEKAKLEELLANESAMKRLMIKEIEADAKQYGDERRTLIQQEKRATFEAKVVDEPVTVVVSQKGWVRALKGHGLDPASFSFKAGDGLYAAFQCRTPDTLIAWGSTGRVYSVAVQVLPGGRGDGVPVTSLIELESGSHLLHYFAAPAEQPLLLASSNGFGFIAKIGDMVSRVKAGKSFMTIDTGAAPLAPMPVLPDASQVACLSSGGRLLVFGMDEMKTLSGGGRGVILMALDAKETLVQALAIDAAGVVLTGTGRGGKAQEEALAGGALEPHVGKRARKGRAPDTRLKVSGLRPVLG
protein production: failed
